Test results published in PMC7423370 (Science Advances, 2020).

Biological target: T1, human CLC-7 with C-terminal tandem twin Strep-tag (human, UniProt P51798 1-805)
T1 sequence: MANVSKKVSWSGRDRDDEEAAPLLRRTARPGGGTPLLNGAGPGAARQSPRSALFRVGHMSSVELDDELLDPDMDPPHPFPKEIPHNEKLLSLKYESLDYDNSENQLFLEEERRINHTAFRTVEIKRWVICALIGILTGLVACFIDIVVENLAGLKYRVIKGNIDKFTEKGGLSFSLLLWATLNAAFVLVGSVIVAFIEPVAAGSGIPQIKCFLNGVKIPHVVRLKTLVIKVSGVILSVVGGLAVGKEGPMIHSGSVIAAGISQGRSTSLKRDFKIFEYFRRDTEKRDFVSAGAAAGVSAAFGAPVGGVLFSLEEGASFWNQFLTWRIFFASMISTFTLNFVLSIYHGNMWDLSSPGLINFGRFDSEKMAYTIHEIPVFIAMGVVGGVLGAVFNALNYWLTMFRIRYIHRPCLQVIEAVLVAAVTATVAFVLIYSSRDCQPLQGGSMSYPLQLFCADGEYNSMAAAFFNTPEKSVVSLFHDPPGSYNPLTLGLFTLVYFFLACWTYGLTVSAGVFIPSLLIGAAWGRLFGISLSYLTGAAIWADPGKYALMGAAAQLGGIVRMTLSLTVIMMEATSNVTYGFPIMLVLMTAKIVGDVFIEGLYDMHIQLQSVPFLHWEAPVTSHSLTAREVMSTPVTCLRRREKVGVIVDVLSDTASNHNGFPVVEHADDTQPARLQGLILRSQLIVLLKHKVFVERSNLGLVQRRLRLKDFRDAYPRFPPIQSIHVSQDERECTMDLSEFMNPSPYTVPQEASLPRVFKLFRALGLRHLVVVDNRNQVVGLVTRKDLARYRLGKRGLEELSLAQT
Test: cryo-EM structure

B1: human Ostm1, no tag (natural protein)
chain: ALPFGSSPHRVFHDLLSEQQLLEVEDLSLSLLQGGGLGPLSLPPDLPDLDPECRELLLDFANSSAELTGCLVRSARPVRLCQTCYPLFQQVVSKMDNISRAAGNTSESQSCARSLLMADRMQIVVILSEFFNTTWQEANCANCLTNNSEELSNSTVYFLNLFNHTLTCFEHNLQGNAHSLLQTKNYSEVCKNCREAYKTLSSLYSEMQKMNELENKAEPGTHLCIDVEDAMNITRKLWSRTFNCSVPCSDTVPVIAVSVFILFLPVVFYLSSFLHSEQKKRKLILPKRLKSSTSFANIQENSN
modifications: glycosylation (NAG) at Asn93, Asn128, Asn163, Asn184, Asn194, Asn216, Asn263
Question: Does B1 bind?
Answer: binds
